# Measured values as given in the DeepSol protein solubility set.
# Experiment: soluble on expression in E. coli; label from the status in PepcDB or PDB records
row,Sequence,soluble on expression in E. coli
1,MAHHHHHHMHTLVNFYTKGSDPVHKATIMPRGMSLGVTWKIPISDKYSQKIRDVQSEIDILMGGLVSEEIIFGKNNVTTGCSSDLQRATHIAQSLVMNYGVGINEENISMFLQDKKNISEEMKIKIDKSIQRILLDSYNRAKKVLNQHIDELHRVASALVEYETLTSDEIKLAMQGKHDQIRKNRELKQKEFNLKDSRIS,soluble
2,MAHHHHHHMIEETSFSNLKWEHDLFSIGDLHGDMDAFLKILLNEKMIDKNYNVIRENVLIVITGDVLDPSYDDINILFFIEEYNEKGKALNSKILMVLGNHEVKNMCLEFNKVKKNVEKYQNRNDMFPKNEVIYNILVNKPFVLRVNEMVFSHAGVLPFYASYGIDYINKEGKNEIENNCKLLFNKRKRKEEFCIACDYGPTLNRYFSFVNDGVFKKWMVCSTLNKSLNLLSSRRMIVGHTVQKNKKINSFCDDKLLLTDTGISKWKNGVVSYVQYFKDGTFDVRYL,not soluble
3,MAHHHHHHMIIEKGEPLNKEIIDHVLDHVTEFPTPTMVSVGDGKADCIVLENFLTHEECDQLVAACEKVGYTFWLQKNHHDADGEATCDSGSKAVRVVDTIEANFPHLSAKLYERIARVVSLKPKCFSEDMPNAEELFERELAGTWVPHALSENLLFGRYHPGGHFMPHVDGATILDLNTRSFYTLLIYLNDCLHGGETFIFAGEQCNVMYLDEKENQYRGNATQRVGAVYPKKGSAAFFYYNLLHEGAPVLEGHKYICRADLLYHRTPTIFTSEADEKAFKAYQEARLAESHGDAERACQLFQRVRKLSKGVASIFQIE,soluble
4,MAHHHHHHMIVASSLEVRNYGEWVRQVRAERIIVNCPDEMDVKAMCAWMKRDETKEKQAECWKEVKKHMYLLGPIPRHVFDEEAFTERCGAVKFALQSINDVTVKECFPRGGESPWCSEDPSHKPVRVVREIYEGSVILFNAPMCDCLEERTLKRLPSVAE,not soluble
5,MAHHHHHHMKCVLVVHSGGERMQRSCDLPDGVSTQEQLRAFVRSQDLRLESLDFTFAASLVRLTAGAAEKKGEKVVLREDADVQQLLKTAKQQRATHVLTFEVTISMSSSSPRNLGSFLSAEYAVDKDLVTLHVFAPLACPSRGKNPSYQEKMFIIPTRCVLESLARAVEDTLSIKLTNSGMKLVLYTMPQQPNGDQVEILYDTSALELLRQHTSQSTPGSTHLRHPYANPENYV,not soluble
6,MAHHHHHHMKFTISTSIEDVLFKGGFRVKEMRLNDFLTVIFGGRSILRANRSVLLRDFFSDPTRYIHDAGVLNEIQATGAYARMEEAVRDEIIFEEDRSKLRDKGVINLLGWSEAAANVKTTVHNNNKNSLDAALEEARNPTTTSTPIYLEGCYESVYNAKWHHLVEVPGGEGTGMDVEEGEPPQS,not soluble
7,MAHHHHHHMKGDAEVVDIGSEVLSVTFSNSGRRLAVLTMRQEISVYETVVPTEPIIIKTFQTSFDAAGGWNKTVGPRSANYNARFNVIAFSPEGEKIVAGGDSKWIVMYHATQGYMLKKWPVTTNQDVQGAEEQYQWRQMTEAGHVDDIDVDDADIHLRRGKIMEMPGSRHRHFATGKRQTALTARTMDLAFSCTGTEFVAATTDGLLMFSTRVARPKFQPLQLSANITTQQVRDQLDRGEPVMALMGAMKLGDKMLGVECLRRMPRDAIPVAVSSVPSVLFPLLVQWVSTEVEESRGIEQALLWAQSLMLHSNECTGGFAQERSAVIPALKVLQRGLQQHRALTDLAKENYFSLRYIIDMTKMQKDILQPAATVE,not soluble
8,MAHHHHHHMKLFCVGHRKVPIRVSPFDHPICVGCSSTLSFSSVLRKREYWNDMSTTNPLDVVLNMRLAVKELTNSAAASDKASEREKIKAKKALNKDNIEAARVYAENAIRKKDEGTSYLRLASRVDAAAERIQSAMQMHAMTRSLEKAICGISKVLHSLDPVQITTAMDAFERHVDTVAVNANAMDGTFERSRASAVPAAEVESFLEQITPDNEIDISEQIAVATNYLKKRPAATEVGDDVGITERMQRISIGAR,not soluble
9,MAHHHHHHMKQSIVTPLRSPLHCATPLPLTFFPSYRRWLPVVRHASRRPHGVFEQRRRGRPHGSTKRVLRHCDAARRVAVVQQKLHVRHVPAIGTKKPTQSHIGSHKAAVAFHRHDSTFLNGVPPNHHTHRRSPRRQFVLRKQTKRFHQEGAVAPLGLVKNGPRPQRTAGITERVYSISLRVTFQKKVSLAAKPVHQLSIDALHALRGVLRRDTSVRKNNPLAHHSHRMLKNVQAVGTLWAKGRRVRLFSSKGTHNIRVYVVEDAQDIHQLMVAHKKNKFPARLHCLPLQGGKKVVNLVGVEPAISDVAKLDNYRRTSNPAILGIRNICQLQYLATAKNIAMNVSKRNQAGLSAADVYRLHVQKRHKICRSAKK,not soluble
10,MAHHHHHHMKQSKLVSRPSKTKKPKERKDRREDERYQREMDALIAREVARENVSMRSDTHKPQPKLLEEVQKDTSRRPKTPTSLSTAAVEKQAKIDKESGFQPVVNQRKERQQQQHQQQQTSAPKPMLVNEALERKLNHFFSNLNRKEKLTRLSQPEENPTASKGATIIVRKDIANARSWQQQQQ,soluble
11,MAHHHHHHMKRVNAIESNREEARERQLSVVRERAKHEAEKMAEELERRSGATLDEIGRTLEAKKRESSALQADRESRIWECEHTLEKIRTRKEDEESASERLRQAMQQPGQGLGLRQSATETKEQQLEMVQLDGARGREAVMRERHSIEAVRRTVRKERCRQRRQWIHQIKEMNAKFPEQVRPLAEERKKKYEQATAKEDAAERALAADVKMIEEYLPKPISLEDIPVNPEETDIIRHQFDEVFTQ,not soluble
12,MAHHHHHHMKRWDEKLTLALRRGSGSDDVTPNPVSEALRNLEETMESIKRRLSQLEKCVERQRVAINEVRTNTSPFDDLLTKTNGDIQSIQQQLEYVVISLERERGIVTDHTEQLRLFVRESTRRDGGRSGLSDSDPSFLFLLATWLYRPVVDFANGCYVLLSPLIGTLQSLSLFNPDVQVRQTESGVYLNNAQPSEDLLSRLQKGQLDPVLTSKT,not soluble
13,MAHHHHHHMKTFIGHFNNNALFSRNSFTNKSLRARKYTKNILSLKNLIYSSFFLYSTMNKVIGTHSGRFHTDEILATVMLKFLPEYKDAKIIRTRDQTKLDTCDIVVDVGGVYDHENKRYDHHQKEFEGTLDDKHTIRLSSAGLIYKHYGKEVLRKGFSITDEEKINVLYEKLYTSFIESVDALDNGINQYEGQPKYQINTTIQCRVNRFNPTFLEDDVDENERFMEAAKIVKQEFVHFVTYYSDVWYMAKSIVRESILDRFNFHKSGRVIYLQKYCPYTEHLYDLEQELNIQDEILYCIYSDRYNNFRCTAISKKNEPFVLRLPFPASFRGLKDEQLQTVSKIPGLTFVHYSGFTSAGENIESLVKLVEASLKENNIVY,not soluble
14,MAHHHHHHMLMCAGRKRFYFSLPSSRALKNIVKLPLLEREDKQKIIHIWKEKYQNDKYVVADHIHISKYEQIKNNCKNNSHFIIPQRNQNGYINFYSQFIDHKLLFITALEEYNKLRANSTPYVTLHFFDELKSREIILTKLNIVNNVITKNQAIKFYNYILSFYSDANYFPYVCKFNNDSRNFHYDAFIDKFKHLC,not soluble
15,MAHHHHHHMLQINAFKLVRATPFLLKRTGKPADTPDYKQVYLPYDAAPTERELERERRRFKQAHHGRMEHRKLVEVKEVPLNVYTYGKEGMSLPIAIFKDQKDPVIGPEWTYPGIYENKIAAQHWYTEELFDKESKEAFESPWQQQILDNQVKRRMAKVMFRMRQVNMKAVDLFQKERGSSRRSGGAGE,not soluble
16,MAHHHHHHMLRFRVRLPKGKEPVSMDLDGTTTWGSFVQSISSLTDVPCSQLRILSGFPPRPVEVGDGAASIASVLPGGGNVIVQVGEADVVKGKTEGRYVPPVDGKWHFVRRVCPSDNSCLFHAAAYVLRNKSRVDGPSLRKECADIVQAYPNVFNEKTILDRPNREYVDFIRNPNAWGGAIELMVLSFLTQTEIVALDLTSSNVLHFGEDNNYTVRAYVVFNGQHYDAIAMNPMFNSPQESEDQVLFSSTDAEVLNRARRFVADEAKKLRLR,soluble
17,MAHHHHHHMLRHFQRDVRGGSSSRRKLPRSVVGERSEEGSGTSKDPFVLSLREIPNRSGCYHCVEDCCECLWITELLAVCYGSLPTRRQVMTYRKRERCAKSILPPFVARIVRVAKISSQDTFYDLGCGNGSVLFQVALLTGARCVGVEINERNATVAQDAWRRLRPMIEARRGEPVEVEIICADFCSLMRDEKFFGSSPVIWAANLLMPGPVNHYLSERFRLLPKGSRVLCLEDLYPHGRSVAKFRDPDAFEMFAMTDFKWQTKSVEWCDTEGPFSMYTKRT,not soluble
18,MAHHHHHHMLRQCERLIVQLSQQVLEQEKDIHSLRAALHSSQNRRRRHRQRGGDEKRERAAAVSMAESFSVSTERRQHHHTHHITVKAPTQMTMTHEDSRLRLTLPSSMTPQVSPIHLSGDAGVDSATGPYPEAAVVAPHSPQSSGAGSAVPSPTRSVGKSSGEHGMAAALAFPSIVCDVSSFSDKTNVGLTPSAACDHPPSGESATADGLWASSLLSEPERSSSSSSLARHRRNTAQLTRNAQFETPRVNLDNQDAMSYLLCIFSSAKSTREADGGATAAMAEAGEAAPCGREHRGGAGVRSPNAPLQQQGEHVARRLFHLDPVDENEGSESGNEHSSGGAVSDYDRPAARRPFLPPLRDKRGDGDGSAPPNHKTCGAFDEDDAFLQERYARIVACALAAEFAASTTLVEEDEVEQQRGCKTGPRAPTAAWCRTTSRRDHSASATVSELLRLFTFQPATRHQPYSDGKGL,not soluble
19,MAHHHHHHMLRRHFQLFLRRTPLWLADDGSSLFERYTEIENSNERRMSALKACGMFDDEWIATEKVHGANFGIYSIEGEKTIRYAKRSGIMHPTEHFFGYHMLVPQLQQYITVTREMLCDKLQKKLHTVLINGELFGGKYDHPSLQKTRKTVMVAGKPRTISAVQTDSFPQYSPDLHFYAFDIKYKETNEAEYVTLTFDDATELFKRVPGLLYARAIIRGPMSKVAAFDVEHFVTTIPPLVGMGNYPLKGNWAEGLVVKHAKRGTPGFDPKGLTILKFKCTAFQEISTDRRQGPRVDEMESVRRDSISRSGIQLPALESIIHDPVQLEASKFLLDHICENRLNAVLSKIGTDPFEKQEMTPDDLATLLAKDALKDFLKEAEPAIVNTPILTRRDMARYVLFESRQLVCSRWKAILQRQTADVVE,not soluble
20,MAHHHHHHMLRRLVSCASPLRLRGCGAAVVLGNGRFASTANASAAPPITTTKAPTYGTVPDIPNLNFLSSPDNLLNTVDGTVDVCEALLKEIPKAKTPQAKHDLIDSTSNVLCLLLDPCEFVRQIHPDENYKRGASLAFQKGYEYMCEVNSRRDLYDVIKELDSQEGRKGLTPESSRTLCS,not soluble
21,MAHHHHHHMLSGITFEIFLFNFEIYHDFSSPLLFSLAIRIVIACGIPSMTNSSVQQVGCRVTYIWLSGKDSHHDIRSKDRTIYISPDDLEKDPKELLRLDMFPVWNFDGSSTGQAEGLITEIHIKPVNAYHCCIPRASSSVPWIVVLAECFLPTGEPTPDNSRAVARRIFDKGLGTHPWFGMEQEYFLVKDGHPYGWCPTCPPASQGPYYCATGSECIRGRKHVDLHYEVCLQMGLKICGTNAEVAFGQWEFQVGPCEGIEMGDQLVVARWVLLRILELEGLDADFRAKPILGDWNGSGLHTNFSTEATRAPGGLEVIYQYIERLKETSSKDIIFYGVDNNERLIGKHETSKLNETTFGIGTRGTSIRIPTAVAAAQSGYMEDRRPAAGADPYLVSSRLFASCLSVDAVELDFSSPRHEREWMASTSKV,not soluble
